In the supplement of paper PMC10126150:
± gives the standard deviation of the averaged measurements.

System: ATP
Assay: switch fluorescence ratio, 500 uM ATP over buffer (Cy3 cluster intensity, sum of 5 cycles each) (fold (ratio)); higher = stronger signal-on switching upon ATP binding; sequences stand for … in TCGTCGGCAGCGTCAGATGTGTATAAGAGACAGTTTTTTTTTTTTTTTTTTTTTTTTT…TC
Settings: aptamer strand: ATP DNA aptamer (quencher-CACCTGGGGGAGTATTGCGGAGGAAGG + anchor), 100 nM annealed; ATP concentration: 500 uM
How it was run: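 The quencher-labelled ATP aptamer, at 100 nM, was annealed to Cy3-labelled switching-strand clusters on a modified Illumina MiSeq flow-cell. The clusters were imaged in selection buffer, then after 15 min with 500 uM ATP at 22 °C, and this buffer/ATP cycle ran five times with NaOH stripping and re-annealing between runs. Per-cluster fluorescence ratios, summed target-cycle over summed buffer-cycle Cy3 intensity, were averaged per switch-domain sequence. Clusters outside 100-1000 RFU were excluded.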
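Note: ATP exposure 15 min at 22 °C before imaging.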

Sequence	switch fluorescence ratio
TTTAGCAAAC	3.53 ± 0.95
TTTAGCATTT	0.997 ± 0.014
TTTAGCCCTT	1.01 ± 0.037
TTTAGCGGAT	1.02 ± 0.019
TTTAGCTGGG	1.01 ± 0.019
TTTAGCTGGT	0.986 ± 0.033
TTTAGCTTAA	0.986 ± 0.021
TTTAGGACAG	1.01 ± 0.011
TTTAGGCATG	0.9966 ± 0.0076
TTTAGGGACG	0.955 ± 0.14
TTTAGGGGG	1.04 ± 0.067
TTTAGGGGTA	0.996 ± 0.018
TTTAGGGGTC	0.981 ± 0.024
TTTAGGGTGG	1.01 ± 0.012
TTTAGGTACG	1 ± 0.018
TTTAGGTAGG	1 ± 0.02
TTTAGGTATG	0.987 ± 0.03
TTTAGGTTCC	1.015 ± 0.005
TTTAGTACTG	1.05 ± 0.032
TTTAGTAGGG	1 ± 0.027
TTTAGTCTGC	0.993 ± 0.018
TTTAGTGAG	1.02 ± 0.011
TTTAGTGGGT	0.984 ± 0.026
TTTAGTGTGG	1.02 ± 0.044
TTTAGTTAAG	0.945 ± 0.038
TTTAGTTCGG	0.998 ± 0.027

Sequence	switch fluorescence ratio
TTTAGTTTGG	1 ± 0.031
TTTATAACCT	1.7 ± 0.61
TTTATAAGGG	0.995 ± 0.013
TTTATACGGG	1.02 ± 0.039
TTTATACGT	0.9783 ± 0.0067
TTTATAGGGT	1 ± 0.032
TTTATAGGT	0.9713 ± 0.0062
TTTATAGTAT	0.993 ± 0.03
TTTATAGTTA	0.979 ± 0.039
TTTATATACG	0.991 ± 0.017
TTTATATATA	1.005 ± 0.0095
TTTATATATG	1 ± 0.024
TTTATATATT	1.01 ± 0.028
TTTATATC	1.07 ± 0.11
TTTATATGAG	0.999 ± 0.044
TTTATATTCG	0.989 ± 0.033
TTTATCAACG	1.046 ± 0.0027
TTTATCGATT	0.991 ± 0.036
TTTATCTGTG	0.954 ± 0.019
TTTATCTTGT	0.9852 ± 0.0016
TTTATCTTTG	1 ± 0.027
TTTATGAGAT	1 ± 0.027
TTTATGATTA	1.035 ± 0.005
TTTATGGCGT	1.008 ± 0.0097
TTTATGGCTT	1.01 ± 0.046
TTTATGGGAC	0.999 ± 0.052

Sequence	switch fluorescence ratio
TTTATGGGCA	1.04 ± 0.05
TTTATGGGTT	0.985 ± 0.018
TTTATGTAAG	0.988 ± 0.065
TTTATGTACG	0.985 ± 0.054
TTTATGTTTG	1.01 ± 0.035
TTTATTAACT	1.06 ± 0.072
TTTATTAAGG	1 ± 0.023
TTTATTAATC	0.99544 ± 0.00085
TTTATTACAT	0.996 ± 0.014
TTTATTAGGC	0.996 ± 0.022
TTTATTCGTT	0.9784 ± 0.0063
TTTATTCTG	0.9873 ± 0.0064
TTTATTTAGG	1.04 ± 0.011
TTTATTTCCT	1.07 ± 0.04
TTTATTTTAA	0.995 ± 0.028
TTTATTTTGC	1.01 ± 0.036
TTTATTTTTA	0.986 ± 0.019
TTTCAAAAGG	1.01 ± 0.019
TTTCAAAAT	1.035 ± 0.0037
TTTCAAGTTT	1.16 ± 0.3
TTTCAATGTA	1.01 ± 0.039
TTTCAATTAA	1 ± 0.013
TTTCAATTGT	1.02 ± 0.047
TTTCACAGCG	1.01 ± 0.011
TTTCAGCGGG	1 ± 0.018
TTTCAGGGCT	1.22 ± 0.16

Sequence	switch fluorescence ratio
TTTCAGTATT	1.01 ± 0.029
TTTCAGTTGG	1.02 ± 0.015
TTTCATACGA	1.01 ± 0.045
TTTCATACGG	1.008 ± 0.0034
TTTCATCCAA	1.42 ± 0.48
TTTCATGTCG	0.986 ± 0.1
TTTCATGTTT	0.9683 ± 0.007
TTTCATTGGG	1.01 ± 0.032
TTTCATTTGG	1.01 ± 0.03
TTTCCAAATG	0.9847 ± 0.0059
TTTCCAAGAA	1.03 ± 0.025
TTTCCATTGG	1.03 ± 0.015
TTTCCATTGT	0.995 ± 0.048
TTTCCCAGGT	3.64 ± 2.7
TTTCCCCATT	1.012 ± 0.0066
TTTCCCGTTG	1.07 ± 0.12
TTTCCGAGGG	1.43 ± 0.63
TTTCCGATGA	1.08 ± 0.032
TTTCCGGGGT	1.28 ± 0.31
TTTCCGTTTT	1.01 ± 0.038
TTTCCTAACT	1.04 ± 0.039
TTTCCTATAT	1.08 ± 0.078
TTTCCTATTG	1.01 ± 0.027
TTTCCTGGGT	1.14 ± 0.18
TTTCCTGGTA	0.9817 ± 0.0073
TTTCCTTGCC	1.19 ± 0.024

Sequence	switch fluorescence ratio
TTTCCTTGTT	1.09 ± 0.057
TTTCGACTGG	0.996 ± 0.02
TTTCGAGGGG	1.02 ± 0.054
TTTCGAGGGT	1.006 ± 0.0034
TTTCGATCTC	1.028 ± 0.0026
TTTCGCAACG	1.09 ± 0.047
TTTCGCAGGT	1.24 ± 0.15
TTTCGCTTTT	1.03 ± 0.044
TTTCGGAAAC	1.1 ± 0.017
TTTCGGAAAT	1.01 ± 0.016
TTTCGGAGGA	0.991 ± 0.018
TTTCGGCGCG	1.02 ± 0.038
TTTCGGGATG	1.01 ± 0.066
TTTCGGGGGA	1.01 ± 0.032
TTTCGGGTAA	1.34 ± 0.47
TTTCGGTCCC	1.02 ± 0.021
TTTCGGTCGC	1.003 ± 0.008
TTTCGGTGGC	0.99 ± 0.072
TTTCGGTTTT	1.04 ± 0.11
TTTCGTAGGA	1.28 ± 0.35
TTTCGTGGGG	0.992 ± 0.056
TTTCGTTCTT	1.02 ± 0.03
TTTCTAAATC	0.979 ± 0.01
TTTCTAAGTT	1.03 ± 0.021
TTTCTAATGC	1.03 ± 0.014
TTTCTAGGCA	1.01 ± 0.03

Sequence	switch fluorescence ratio
TTTCTATTTG	1.02 ± 0.029
TTTCTCATTC	1.08 ± 0.12
TTTCTCCTTT	1.04 ± 0.035
TTTCTCGATG	1.011 ± 0.0072
TTTCTCGGAG	1.08 ± 0.084
TTTCTGGAGA	1.05 ± 0.05
TTTCTGGCGG	1.02 ± 0.025
TTTCTGGGGG	0.984 ± 0.019
TTTCTGTGGG	0.986 ± 0.016
TTTCTGTGTT	1.012 ± 0.0069
TTTCTTAATT	1.4 ± 0.59
TTTCTTACGC	1.07 ± 0.066
TTTCTTAGCT	1.005 ± 0.0046
TTTCTTATGA	0.971 ± 0.025
TTTCTTATTG	1.031 ± 0.0085
TTTCTTGGGT	1.04 ± 0.17
TTTCTTTAAA	1.01 ± 0.019
TTTCTTTATT	1.05 ± 0.063
TTTCTTTGAA	0.977 ± 0.018
TTTGAAAAGT	1.022 ± 0.0028
TTTGAAATTA	0.9769 ± 0.003
TTTGAAGGAA	0.986 ± 0.017
TTTGAAGGGG	1.01 ± 0.035
